Target: casp8_human CASP8 (UniProt Q14790)
Sequence (Q14790 whole entry): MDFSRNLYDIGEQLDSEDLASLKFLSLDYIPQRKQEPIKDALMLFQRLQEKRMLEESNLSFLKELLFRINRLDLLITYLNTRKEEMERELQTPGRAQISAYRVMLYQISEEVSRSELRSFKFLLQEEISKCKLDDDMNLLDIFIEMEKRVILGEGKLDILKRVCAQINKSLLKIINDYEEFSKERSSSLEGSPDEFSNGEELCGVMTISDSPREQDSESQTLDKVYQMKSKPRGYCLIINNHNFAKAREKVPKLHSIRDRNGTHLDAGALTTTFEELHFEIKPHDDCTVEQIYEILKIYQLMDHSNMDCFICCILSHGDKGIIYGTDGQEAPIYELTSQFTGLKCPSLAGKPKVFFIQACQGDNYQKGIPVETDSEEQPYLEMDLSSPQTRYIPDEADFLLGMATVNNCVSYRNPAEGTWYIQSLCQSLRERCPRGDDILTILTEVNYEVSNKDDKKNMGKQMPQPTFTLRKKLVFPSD

Osteopontin (Homo sapiens), P10451-1 D135A;D157A, sequence (P10451 whole entry D135A/D157A): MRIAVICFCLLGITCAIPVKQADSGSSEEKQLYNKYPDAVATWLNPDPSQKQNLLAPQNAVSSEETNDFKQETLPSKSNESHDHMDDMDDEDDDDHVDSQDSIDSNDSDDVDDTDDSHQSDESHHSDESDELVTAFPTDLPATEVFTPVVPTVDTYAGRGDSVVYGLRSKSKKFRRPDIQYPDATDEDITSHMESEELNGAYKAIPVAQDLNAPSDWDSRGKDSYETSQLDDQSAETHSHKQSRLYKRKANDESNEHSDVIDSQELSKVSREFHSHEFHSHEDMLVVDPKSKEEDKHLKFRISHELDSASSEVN

Osteopontin (Homo sapiens), P10451-1 D135A;D157A
effect of a mutation on the interaction: disrupting interaction

Reference: IntAct's records for PubMed 19706414
